Here are results for 14 substances from the supplement of paper PMC11316812.

± gives the standard deviation of the averaged measurements.

In series [1] the test system is hTERT-HMEC. The series is described as follows: percentage of EdU-negative (G0-arrested) nuclei per well, 72 h; higher = more G0 arrest. The conditions noted are these: reference: sequence is the full UniProt precursor, the tested protein was the secreted form or ectodomain.
Series [2] has as its system MCF7. The description is as above. The conditions noted are these: reference: sequence is the full UniProt precursor, the tested protein was the secreted form or ectodomain.
Setting [3] is: protein concentration 0.0225 µM.
Where [4] appears, read: protein concentration 0.03125 µM.
Setting [5] is: protein concentration 0.3125 µM.
Setting [6] is: protein concentration 0.0292375 µM.
[7] abbreviates: protein concentration 0.292375 µM.
[8] abbreviates: protein concentration 0.027515 µM.
Where [9] appears, read: protein concentration 0.27515 µM.
[10] abbreviates: protein concentration 0.0133825 µM.
Setting [11] is: protein concentration 0.133825 µM.
The mark [12] stands for this setting: protein concentration 0.0257143 µM.
Setting [13] is: protein concentration 0.257143 µM.
[14] abbreviates: protein concentration 0.00925 µM.
[15] abbreviates: protein concentration 0.0925 µM.
The mark [16] stands for this setting: protein concentration 0.00592 µM.
The mark [17] stands for this setting: protein concentration 0.0592 µM.
[18] abbreviates: protein concentration 0.0357143 µM.
The mark [19] stands for this setting: protein concentration 0.357143 µM.
Where [20] appears, read: protein concentration 0.02625 µM.
The mark [21] stands for this setting: protein concentration 0.2625 µM.
Setting [22] is: protein concentration 0.00625 µM.
Setting [23] is: protein concentration 0.0625 µM.
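Further: secreted proteins added to cultured cells, EdU pulse at the end, nuclei found by Hoechst imaging, EdU status from nuclear versus surrounding ring intensity ratio, PBS as neutral control.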

Q9BZP6, sequence (chain, as listed by the source): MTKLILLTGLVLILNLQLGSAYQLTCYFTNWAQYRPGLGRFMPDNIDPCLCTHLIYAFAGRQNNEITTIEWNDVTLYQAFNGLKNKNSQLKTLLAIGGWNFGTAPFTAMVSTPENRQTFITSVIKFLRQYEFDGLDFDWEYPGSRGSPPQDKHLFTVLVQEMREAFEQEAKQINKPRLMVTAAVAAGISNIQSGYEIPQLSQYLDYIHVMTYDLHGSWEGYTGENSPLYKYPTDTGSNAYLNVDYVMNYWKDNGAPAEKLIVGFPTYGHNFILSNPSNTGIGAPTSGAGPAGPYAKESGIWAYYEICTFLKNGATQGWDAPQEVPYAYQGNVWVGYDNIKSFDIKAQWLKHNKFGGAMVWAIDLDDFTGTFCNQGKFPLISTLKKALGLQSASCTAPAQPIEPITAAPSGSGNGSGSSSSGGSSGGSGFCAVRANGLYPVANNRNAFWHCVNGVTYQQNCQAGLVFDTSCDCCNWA

Turning to “MIRAAPPPLFLLLLLLLLLVSWASRGEAAPDQDEIQRLPGLAKQPSFRQYSGYLKGSGSKHLHYWFVESQKDPENSPVVLWLNGGPGCSSLDGLLTEHGPFLVQPDGVTLEYNPYSWNLIANVLYLESPAGVGFSYSDDKFYATNDTEVAQSNFEALQDFFRLFPEYKNNKLFLTGESYAGIYIPTLAVLVMQDPSMNLQGLAVGNGLSSYEQNDNSLVYFAYYHGLLGNRLWSSLQTHCCSQNKCNFYDNKDLECVTNLQEVARIVGNSGLNIYNLYAPCAGGVPSHFRYEKDTVVVQDLGNIFTRLPLKRMWHQALLRSGDKVRMDPPCTNTTAASTYLNNPYVRKALNIPEQLPQWDMCNFLVNLQYRRLYRSMNSQYLKLLSSQKYQILLYNGDVDMACNFMGDEWFVDSLNQKMEVQRRPWLVKYGDSGEQIAGFVKEFSHIAFLTIKGAGHMVPTDKPLAAFTMFSRFLNKQPY”, the “percentage of EdU-negative” value in series [1] (setting [3]) turned out to be 5.3 ± 0.043%; in series [1] (protein concentration 0.225 µM) it was 5.82 ± 0.15%; in series [2] (setting [3]), 25.2 ± 3.7%; in series [2] (protein concentration 0.225 µM), 25.1 ± 0.47%.

On to “MMCGAPSATQPATAETQHIADQVRSQLEEKENKKFPVFKAVSFKSQVVAGTNYFIKVHVGDEDFVHLRVFQSLPHENKPLTLSNYQTNKAKHDELTYF”, for which the “percentage of EdU-negative” value was 5.09 ± 0.59% in series [1] (setting [4]), 4.78 ± 0.35% in series [1] (setting [5]), 26 ± 3.3% in series [2] (setting [4]) and 26.5 ± 2.9% in series [2] (setting [5]).

Turning to “MDLWQLLLTLALAGSSDAFSGSEATAAILSRAPWSLQSVNPGLKTNSSKEPKFTKCRSPERETFSCHWTDEVHHGTKNLGPIQLFYTRRNTQEWTQEWKECPDYVSAGENSCYFNSSFTSIWIPYCIKLTSNGGTVDEKCFSVDEIVQPDPPIALNWTLLNVSLTGIHADIQVRWEAPRNADIQKGWMVLEYELQYKEVNETKWKMMDPILTTSVPVYSLKVDKEYEVRVRSKQRNSGNYGEFSEVLYVTLPQMSQFTCEEDFYFPWLLIIIFGIFGLTVMLFVFLFSKQQRIKMLILPPVPVPKIKGIDPDLLKEGKLEEVNTILAIHDSYKPEFHSDDSWVEFIELDIDEPDEKTEESDTDRLLSSDHEKSHSNLGVKDGDSGRTSCCEPDILETDFNANDIHEGTSEVAQPQRLKGEADLLCLDQKNQNNSPYHDACPATQQPSVIQAEKNKPQPLPTEGAESTHQAAHIQLSNPSSLSNIDFYAQVSDITPAGSVVLSPGQKNKAGMSQCDMHPEMVSLCQENFLMDNAYFCEADAKKCIPVAPHIKVESHIQPSLNQEDIYITTESLTTAAGRPGTGEHVPGSEMPVPDYTSIHIVQSPQGLILNATALPLPDKEFLSSCGYVSTDQLNKIMP”, the “percentage of EdU-negative” value in series [1] (setting [6]) came out at 4.42 ± 0.8%; in series [1] (setting [7]) it was 6.44 ± 1.3%; in series [2] (setting [6]) it was 25 ± 3.3%; in series [2] (setting [7]), 24.5 ± 1.6%.

In the case of “MQALVLLLCIGALLGHSSCQNPASPPEEGSPDPDSTGALVEEEDPFFKVPVNKLAAAVSNFGYDLYRVRSSTSPTTNVLLSPLSVATALSALSLGAEQRTESIIHRALYYDLISSPDIHGTYKELLDTVTAPQKNLKSASRIVFEKKLRIKSSFVAPLEKSYGTRPRVLTGNPRLDLQEINNWVQAQMKGKLARSTKEIPDEISILLLGVAHFKGQWVTKFDSRKTSLEDFYLDEERTVRVPMMSDPKAVLRYGLDSDLSCKIAQLPLTGSMSIIFFLPLKVTQNLTLIEESLTSEFIHDIDRELKTVQAVLTVPKLKLSYEGEVTKSLQEMKLQSLFDSPDFSKITGKPIKLTQVEHRAGFEWNEDGAGTTPSPGLQPAHLTFPLDYHLNQPFIFVLRDTDTGALLFIGKILDPRGP”, the “percentage of EdU-negative” value in series [1] (setting [8]) was determined as 5.35 ± 0.62%; in series [1] (setting [9]), 9.19 ± 1.1%; in series [2] (setting [8]), 26.5 ± 1.4%; in series [2] (setting [9]), 28 ± 0.47%.

Take “MGPLSAPPCTQHITWKGLLLTASLLNFWNLPTTAQVIIEAKPPKVSEGKDVLLLVHNLPQNLTGYIWYKGQMTDLYHYITSYVVHGQIIYGPAYSGRETVYSNASLLIQNVTQEDAGSYTLHIIKRGDGTGGVTGYFTVTLYSETPKPSISSSNLNPREVMEAVRLICDPETPDASYLWLLNGQNLPMTHRLQLSKTNRTLYLFGVTKYIAGPYECEIRNPVSASRSDPVTLNLLPKLPMPYITINNLNPREKKDVLAFTCEPKSRNYTYIWWLNGQSLPVSPRVKRPIENRILILPSVTRNETGPYQCEIRDRYGGIRSNPVTLNVLYGPDLPRIYPSFTYYRSGENLDLSCFADSNPPAEYSWTINGKFQLSGQKLFIPQITTNHSGLYACSVRNSATGKEISKSMIVKVSETASPQVTYAGPNTWFQEILLL”: the “percentage of EdU-negative” value in series [1] (setting [10]) came to 4.917 ± 0.044%; in series [1] (setting [11]), 5.76 ± 1.7%; in series [2] (setting [10]), 24.7 ± 1.5%; in series [2] (setting [11]), 27.3 ± 1.4%.

“MERVQPLEENVGNAARPRFERNKLLLVASVIQGLGLLLCFTYICLHFSALQVSHRYPRIQSIKVQFTEYKKEKGFILTSQKEDEIMKVQNNSVIINCDGFYLISLKGYFSQEVNISLHYQKDEEPLFQLKKVRSVNSLMVASLTYKDKVYLNVTTDNTSLDDFHVNGGELILIHQNPGEFCVL”: the “percentage of EdU-negative” value was found to be 5.74 ± 1.2% in series [1] (setting [12]), 5.19 ± 1.2% in series [1] (setting [13]), 23.4 ± 0.97% in series [2] (setting [12]) and 27.27 ± 0.14% in series [2] (setting [13]).

Take “MPPGPWESCFWVGGLILWLSVGSSGDAPPTPQPKCADFQSANLFEGTDLKVQFLLFVPSNPSCGQLVEGSSDLQNSGFNATLGTKLIIHGFRVLGTKPSWIDTFIRTLLRATNANVIAVDWIYGSTGVYFSAVKNVIKLSLEISLFLNKLLVLGVSESSIHIIGVSLGAHVGGMVGQLFGGQLGQITGLDPAGPEYTRASVEERLDAGDALFVEAIHTDTDNLGIRIPVGHVDYFVNGGQDQPGCPTFFYAGYSYLICDHMRAVHLYISALENSCPLMAFPCASYKAFLAGRCLDCFNPFLLSCPRIGLVEQGGVKIEPLPKEVKVYLLTTSSAPYCMHHSLVEFHLKELRNKDTNIEVTFLSSNITSSSKITIPKQQRYGKGIIAHATPQCQINQVKFKFQSSNRVWKKDRTTIIGKFCTALLPVNDREKMVCLPEPVNLQASVTVSCDLKIACV [Q53H76]”: the “percentage of EdU-negative” value is 4.11 ± 0.46% in series [1] (setting [14]), 6.06 ± 0.41% in series [1] (setting [15]), 24.3 ± 1.9% in series [2] (setting [14]) and 28.4 ± 1.4% in series [2] (setting [15]).

Consider “MLRAGWLRGAAALALLLAARVVAAFEPITVGLAIGAASAITGYLSYNDIYCRFAECCREERPLNASALKLDLEEKLFGQHLATEVIFKALTGFRNNKNPKKPLTLSLHGWAGTGKNFVSQIVAENLHPKGLKSNFVHLFVSTLHFPHEQKIKLYQDQLQKWIRGNVSACANSVFIFDEMDKLHPGIIDAIKPFLDYYEQVDGVSYRKAIFIFLSNAGGDLITKTALDFWRAGRKREDIQLKDLEPVLSVGVFNNKHSGLWHSGLIDKNLIDYFIPFLPLEYRHVKMCVRAEMRARGSAIDEDIVTRVAEEMTFFPRDEKIYSDKGCKTVQSRLDFH”, for which the “percentage of EdU-negative” value came to 5.1 ± 0.71% in series [1] (protein concentration 0.005 µM), 6.38 ± 0.16% in series [1] (protein concentration 0.05 µM), 27.8 ± 1% in series [2] (protein concentration 0.005 µM) and 24.9 ± 1.3% in series [2] (protein concentration 0.05 µM).

Turning to “MPMGSLQPLATLYLLGMLVASCLGRLSWYDPDFQARLTRSNSKCQGQLEVYLKDGWHMVCSQSWGRSSKQWEDPSQASKVCQRLNCGVPLSLGPFLVTYTPQSSIICYGQLGSFSNCSHSRNDMCHSLGLTCLEPQKTTPPTTRPPPTTTPEPTAPPRLQLVAQSGGQHCAGVVEFYSGSLGGTISYEAQDKTQDLENFLCNNLQCGSFLKHLPETEAGRAQDPGEPREHQPLPIQWKIQNSSCTSLEHCFRKIKPQKSGRVLALLCSGFQPKVQSRLVGGSSICEGTVEVRQGAQWAALCDSSSARSSLRWEEVCREQQCGSVNSYRVLDAGDPTSRGLFCPHQKLSQCHELWERNSYCKKVFVTCQDPNPAGLAAGTVASIILALVLLVVLLVVCGPLAYKKLVKKFRQKKQRQWIGPTGMNQNMSFHRNHTATVRSHAENPTASHVDNEYSQPPRNSHLSAYPALEGALHRSSMQPDNSSDSDYDLHGAQRL”, the “percentage of EdU-negative” value in series [1] (setting [3]) came to 5.29 ± 0.99%; in series [1] (protein concentration 0.225 µM), 5.13 ± 0.33%; in series [2] (setting [3]), 24.9 ± 1.4%; in series [2] (protein concentration 0.225 µM), 26 ± 3.2%.

For “MHLLGFFSVACSLLAAALLPGPREAPAAAAAFESGLDLSDAEPDAGEATAYASKDLEEQLRSVSSVDELMTVLYPEYWKMYKCQLRKGGWQHNREQANLNSRTEETIKFAAAHYNTEILKSIDNEWRKTQCMPREVCIDVGKEFGVATNTFFKPPCVSVYRCGGCCNSEGLQCMNTSTSYLSKTLFEITVPLSQGPKPVTISFANHTSCRCMSKLDVYRQVHSIIRRSLPATLPQCQAANKTCPTNYMWNNHICRCLAQEDFMFSSDAGDDSTDGFHDICGPNKELDEETCQCVCRAGLRPASCGPHKELDRNSCQCVCKNKLFPSQCGANREFDENTCQCVCKRTCPRNQPLNPGKCACECTESPQKCLLKGKKFHHQTCSCYRRPCTNRQKACEPGFSYSEEVCRCVPSYWKRPQMS”, the “percentage of EdU-negative” value in series [1] (setting [16]) worked out at 5.07 ± 0.77%; in series [1] (setting [17]) it was 5.93 ± 0.55%; in series [2] (setting [16]), 25.4 ± 0.75%; in series [2] (setting [17]), 25.31 ± 0.24%.

As for Q9BZP6, the “percentage of EdU-negative” value in series [1] (setting [18]) is 5.02 ± 0.9%; in series [1] (setting [19]) it was 6.66 ± 0.26%; in series [2] (setting [18]), 23.1 ± 1.2%; in series [2] (setting [19]), 27.6 ± 0.63%.

Take “MAAAASPAILPRLAILPYLLFDWSGTGRADAHSLWYNFTIIHLPRHGQQWCEVQSQVDQKNFLSYDCGSDKVLSMGHLEEQLYATDAWGKQLEMLREVGQRLRLELADTELEDFTPSGPLTLQVRMSCECEADGYIRGSWQFSFDGRKFLLFDSNNRKWTVVHAGARRMKEKWEKDSGLTTFFKMVSMRDCKSWLRDFLMHRKKRLEPTAPPTMAPGLAQPKAIATTLSPWSFLIILCFILPGI [Q9BZM4]”: the “percentage of EdU-negative” value in series [1] (setting [20]) is 5.34 ± 0.19%; in series [1] (setting [21]), 4.8 ± 0.37%; in series [2] (setting [20]), 25.38 ± 0.21%; in series [2] (setting [21]), 27.9 ± 1.3%.

For the substance Q9BXP8, the “percentage of EdU-negative” value in series [1] (setting [22]) stood at 5.11 ± 0.6%; in series [1] (setting [23]) it was 6.47 ± 0.67%; in series [2] (setting [22]), 26.6 ± 1.2%; in series [2] (setting [23]), 28.7 ± 1.2%.

Take P08572: the “percentage of EdU-negative” value stood at 4.54 ± 0.088% in series [1] (protein concentration 0.008 µM), 5.63 ± 0.46% in series [1] (protein concentration 0.08 µM), 24.1 ± 2.1% in series [2] (protein concentration 0.008 µM) and 25.4 ± 0.67% in series [2] (protein concentration 0.08 µM).
